Laboratory results published in patent publication US20120028912A1.

Molecular target: lysine-acetylated histone H4 peptide SGRGKGG-AcK-GLGK (Lys8 acetylated)
Test: NMR titration, 15N-HSQC chemical shift changes against ligand concentration

- Kd: 346 µM
B1: bromodomain of P/CAF (residues 719-832 of SEQ ID NO:2), Q92831 719-832 (protein)
chain: SKEPRDPDQLYSTLKSILQQVKSHQSAWPFMEPVKRTEAPGYYEVIRFPMDLKTMSERLKNRYYVSKKLFMADLQRVFTNCKEYNAAESEYYKCANILEKFFFSKIKEAGLIDK
